From patent US20040175375A1 (SEOUL NATIONAL UNIVERSITY INDUSTRY FOUNDATION, published 2004)
One block for each binder: values may come before it.

How the values were obtained:
HA-FBP = target: T1, HA-FBP (human, UniProt Q96AE4 1-644); assay: co-immunoprecipitation with anti-myc from 293 cells, western blot
T1 construct: also called HA-tagged FBP; FBP expression plasmid product; not shown: HA tag from HA-tagged pcDNA3 (Invitrogen)
T1 sequence (looked up): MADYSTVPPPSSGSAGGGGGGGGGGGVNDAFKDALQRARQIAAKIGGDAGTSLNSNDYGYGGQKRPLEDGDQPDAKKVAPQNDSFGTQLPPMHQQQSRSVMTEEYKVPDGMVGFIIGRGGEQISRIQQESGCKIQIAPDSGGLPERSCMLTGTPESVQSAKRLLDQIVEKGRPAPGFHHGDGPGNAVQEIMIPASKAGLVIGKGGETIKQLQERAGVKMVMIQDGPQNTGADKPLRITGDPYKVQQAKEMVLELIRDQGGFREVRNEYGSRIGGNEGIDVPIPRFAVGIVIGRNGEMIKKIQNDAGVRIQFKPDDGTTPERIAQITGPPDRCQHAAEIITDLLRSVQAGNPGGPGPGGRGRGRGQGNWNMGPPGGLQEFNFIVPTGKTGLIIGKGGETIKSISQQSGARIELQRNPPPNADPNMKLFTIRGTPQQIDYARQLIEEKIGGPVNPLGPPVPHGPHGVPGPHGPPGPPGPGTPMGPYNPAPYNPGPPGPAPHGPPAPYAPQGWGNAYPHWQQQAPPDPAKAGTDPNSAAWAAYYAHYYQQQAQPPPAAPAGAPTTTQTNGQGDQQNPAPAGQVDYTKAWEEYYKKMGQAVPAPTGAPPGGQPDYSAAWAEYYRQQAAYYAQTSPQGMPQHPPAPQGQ
Description: The transfected cells were lysed with the RIPA buffer for 16 hours after the transfection. […] After a protein A-agarose bead had been added to the above reactant, the mixture was incubated further for 1 hour at 4° C. The bead was washed with lysis buffer four times. The precipitated proteins were analyzed by SDS-PAGE and then transferred onto nitrocellulose membranes.

[1] = target: T2, myc-(p38/JTV-1), amino acids 1-312 (full length)
T2 chain: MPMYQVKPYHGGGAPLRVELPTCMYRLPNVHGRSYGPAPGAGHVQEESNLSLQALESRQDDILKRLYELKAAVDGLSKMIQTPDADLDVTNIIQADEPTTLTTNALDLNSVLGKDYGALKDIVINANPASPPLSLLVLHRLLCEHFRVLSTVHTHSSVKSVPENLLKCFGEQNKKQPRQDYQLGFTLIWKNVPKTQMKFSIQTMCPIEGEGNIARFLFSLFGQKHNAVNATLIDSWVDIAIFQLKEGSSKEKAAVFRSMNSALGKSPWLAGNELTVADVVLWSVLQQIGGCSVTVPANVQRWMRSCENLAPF

[2] = target: T3, B42-YRS (tyrosyl-tRNA synthetase) (UniProt P54577 1-528); assay: yeast two-hybrid (LexA system), blue colony on X-gal
T3 construct: Yeast two-hybrid prey; also called tyrosyl-YRS; pB42-YRS; not shown: B42 protein from pB42 vector (Invitrogen)
T3 sequence (looked up): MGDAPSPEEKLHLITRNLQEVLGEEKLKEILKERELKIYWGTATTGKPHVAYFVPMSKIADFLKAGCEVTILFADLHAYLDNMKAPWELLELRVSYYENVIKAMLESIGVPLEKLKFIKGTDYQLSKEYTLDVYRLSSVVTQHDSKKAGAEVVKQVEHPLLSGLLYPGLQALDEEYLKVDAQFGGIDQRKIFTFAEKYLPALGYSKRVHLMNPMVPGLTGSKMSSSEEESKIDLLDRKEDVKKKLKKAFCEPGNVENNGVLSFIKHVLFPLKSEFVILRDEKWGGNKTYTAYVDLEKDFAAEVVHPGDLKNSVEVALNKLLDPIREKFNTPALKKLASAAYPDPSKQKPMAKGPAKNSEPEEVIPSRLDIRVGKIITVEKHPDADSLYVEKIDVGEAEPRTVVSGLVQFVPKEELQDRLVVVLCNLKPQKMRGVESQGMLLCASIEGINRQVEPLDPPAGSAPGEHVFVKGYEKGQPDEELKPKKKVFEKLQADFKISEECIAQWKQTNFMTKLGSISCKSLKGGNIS
Description: (§1) Using the recombinant plasmids constructed in the above, Saccaromyces cerevisiae EGY48 (Clontech laboratories Inc. Estojak et al. (1995)) having a lacZ plasmid (p8op-LacZ) as a probe gene was transformed according to the known methods (Golemis, E. A., et al., In Current Protocols in Molecular Biology, 1994).

B42-(p38/JTV-1) = target: T4, B42-(p38/JTV-1) (human, UniProt Q13155 1-312); assay: as above
T4 construct: Yeast two-hybrid prey; also called pB42-(p38/JTV-1); not shown: B42 protein from pB42 vector (Invitrogen)
T4 sequence: T2 chain
Description: as §1

[3] = target: T5, B42-WRS (tryptophanyl-tRNA synthetase) (UniProt P23381 1-471); assay: as above
T5 construct: Yeast two-hybrid prey; also called tryptophanyl-WRS; pB42-WRS; not shown: B42 protein from pB42 vector (Invitrogen)
T5 sequence (looked up): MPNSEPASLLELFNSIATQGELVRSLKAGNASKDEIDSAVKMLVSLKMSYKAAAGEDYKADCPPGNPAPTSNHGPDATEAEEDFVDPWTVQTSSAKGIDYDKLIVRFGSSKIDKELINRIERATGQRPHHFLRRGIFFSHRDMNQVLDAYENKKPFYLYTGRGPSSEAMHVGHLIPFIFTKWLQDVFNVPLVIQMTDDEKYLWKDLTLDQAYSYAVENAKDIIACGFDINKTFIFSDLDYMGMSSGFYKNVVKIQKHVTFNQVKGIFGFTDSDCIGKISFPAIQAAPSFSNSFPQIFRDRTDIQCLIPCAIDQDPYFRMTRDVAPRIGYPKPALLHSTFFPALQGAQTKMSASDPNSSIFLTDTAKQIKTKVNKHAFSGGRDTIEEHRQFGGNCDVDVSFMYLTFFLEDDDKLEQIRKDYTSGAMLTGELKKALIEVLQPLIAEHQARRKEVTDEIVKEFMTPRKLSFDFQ
Description: as §1

[4] = target: T6, B42-QRS (glutaminyl-tRNA synthetase) (UniProt P47897 1-775); assay: as above
T6 construct: Yeast two-hybrid prey; also called pB42-QRS; not shown: B42 protein from pB42 vector (Invitrogen)
T6 sequence (looked up): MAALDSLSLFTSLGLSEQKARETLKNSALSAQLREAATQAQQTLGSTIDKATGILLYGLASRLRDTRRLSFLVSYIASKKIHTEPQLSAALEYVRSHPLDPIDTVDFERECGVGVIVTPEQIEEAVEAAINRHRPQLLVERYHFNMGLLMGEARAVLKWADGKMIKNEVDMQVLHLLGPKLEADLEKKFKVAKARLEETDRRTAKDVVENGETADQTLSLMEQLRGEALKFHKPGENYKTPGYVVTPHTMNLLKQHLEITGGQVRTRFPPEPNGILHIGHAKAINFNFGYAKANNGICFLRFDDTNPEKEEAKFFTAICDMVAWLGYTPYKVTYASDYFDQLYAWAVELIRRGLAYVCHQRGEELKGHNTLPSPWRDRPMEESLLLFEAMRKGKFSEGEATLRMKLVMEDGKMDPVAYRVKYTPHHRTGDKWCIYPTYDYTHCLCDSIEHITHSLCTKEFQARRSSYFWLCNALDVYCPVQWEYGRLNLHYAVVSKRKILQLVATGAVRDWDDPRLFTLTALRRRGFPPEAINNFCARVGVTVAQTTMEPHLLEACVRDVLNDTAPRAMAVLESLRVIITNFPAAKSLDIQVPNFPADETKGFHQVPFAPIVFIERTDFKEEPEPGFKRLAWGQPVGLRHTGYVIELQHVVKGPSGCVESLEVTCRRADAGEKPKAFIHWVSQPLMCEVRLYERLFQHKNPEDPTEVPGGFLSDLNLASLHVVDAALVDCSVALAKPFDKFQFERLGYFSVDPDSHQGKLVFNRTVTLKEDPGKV
Description: as §1

[5] = target: T7, PDK-1 (phosphoinositide-dependent kinase) (UniProt O15530 1-556, limits assumed); assay: anti PDK-1 immunoprecipitation from HCT116 cells treated with FasL or TNF, western blot with p38/JTV-1 antibody
T7 construct: Endogenous protein of the cell lysate
T7 sequence (looked up): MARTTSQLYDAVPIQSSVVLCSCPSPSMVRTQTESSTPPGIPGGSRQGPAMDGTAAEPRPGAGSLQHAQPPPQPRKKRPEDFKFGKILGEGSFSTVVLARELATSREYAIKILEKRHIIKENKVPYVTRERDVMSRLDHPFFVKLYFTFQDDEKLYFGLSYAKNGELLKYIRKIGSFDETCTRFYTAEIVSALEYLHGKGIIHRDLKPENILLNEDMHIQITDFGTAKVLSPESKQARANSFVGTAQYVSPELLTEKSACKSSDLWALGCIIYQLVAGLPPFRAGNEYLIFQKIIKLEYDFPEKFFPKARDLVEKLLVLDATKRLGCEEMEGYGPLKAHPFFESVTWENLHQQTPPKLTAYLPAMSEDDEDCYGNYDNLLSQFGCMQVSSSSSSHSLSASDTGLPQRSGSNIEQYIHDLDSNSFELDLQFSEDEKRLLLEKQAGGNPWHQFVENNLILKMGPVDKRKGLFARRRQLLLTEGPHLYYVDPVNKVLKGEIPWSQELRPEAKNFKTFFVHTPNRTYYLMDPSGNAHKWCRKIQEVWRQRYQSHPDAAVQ

binding result (HA-FBP): no binding
B1: myc-tagged p38/JTV-1 deletion fragment, amino acids 162-312 (other)
chain: PENLLKCFGEQNKKQPRQDYQLGFTLIWKNVPKTQMKFSIQTMCPIEGEGNIARFLFSLFGQKHNAVNATLIDSWVDIAIFQLKEGSSKEKAAVFRSMNSALGKSPWLAGNELTVADVVLWSVLQQIGGCSVTVPANVQRWMRSCENLAPF
notes: not shown: myc tag from myc-tagged pcDNA3 (Invitrogen)

B2: PDK-1 (phosphoinositide-dependent kinase) (protein)
chain: T7 sequence (looked up)
expression level of the phosphorylated AKT (p-308 and p-473) [1]: when the expression level of p38/JTV-1 was increased, the expression level of the phosphorylated AKT (p-308 and p-473) was decreased

binding result [2]: no binding | binding result (B42-(p38/JTV-1)): binds | binding result [3]: no binding | binding result [4]: no binding
B3: LexA-(p38/JTV-1) (other)
chain: T2 chain
notes: Yeast two-hybrid bait expressed in S. cerevisiae EGY48; also called fusion protein of p38/JTV-1 and LexA; pLexA-(p38/JTV-1); not shown: LexA protein encoded by pLex202 vector (Invitrogen)

binding result [5]: binds
B4: myc-(p38/JTV-1), amino acids 1-312 (full length) (other)
chain: T2 chain
notes: also called myc-tagged p38/JTV-1; p38/JTV-1 expression plasmid product; not shown: myc tag from myc-tagged pcDNA3 (Invitrogen)
